Data on 23 molecules can be found in patent US20030152959, “Method of using estrogen-related receptor alpha (ERRalpha) status to determine prognosis, treatment strategy and predisposition to breast cancer, and method of using ERRalpha as a therapeutic target for the treatment of breast cancer” (published 2003).

The labels stand for the following.
T1: ERRα1 (estrogen-related receptor alpha 1, NR3B1) (Homo sapiens, UniProt P11474 P11474:1-423)
T1 sequence: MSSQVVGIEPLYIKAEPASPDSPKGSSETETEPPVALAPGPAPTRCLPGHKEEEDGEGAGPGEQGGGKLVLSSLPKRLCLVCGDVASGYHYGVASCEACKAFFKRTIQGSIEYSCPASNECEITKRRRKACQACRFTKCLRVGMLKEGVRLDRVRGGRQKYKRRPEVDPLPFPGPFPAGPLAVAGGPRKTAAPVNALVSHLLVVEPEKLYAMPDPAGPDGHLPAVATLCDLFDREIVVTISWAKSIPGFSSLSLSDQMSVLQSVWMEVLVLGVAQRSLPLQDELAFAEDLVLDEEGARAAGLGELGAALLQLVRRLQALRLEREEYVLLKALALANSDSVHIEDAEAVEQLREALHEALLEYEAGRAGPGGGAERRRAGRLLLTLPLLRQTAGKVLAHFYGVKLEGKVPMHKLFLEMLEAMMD

B1: Consensus palindromic ERE (dsDNA)
DNA 1: TAAGCTTAGGTCACAGTGACCTAAGCTTA
DNA 2: TAAGCTTAGGTCACTGTGACCTAAGCTTA
B2: pS2 site 1 (dsDNA)
DNA 1: TCCCTTCCCCCTGCAAGGTCACGGTGGCCACCC
DNA 2: GGGTGGCCACCGTGACCTTGCAGGGGGAAGGGA
B3: aromatase site (dsDNA)
DNA 1: CCTGAGACTCTACCAAGGTCAGAAATGCTGCAA
DNA 2: TTGCAGCATTTCTGACCTTGGTAGAGTCTCAGG
B4: cyclin D1 site (dsDNA)
DNA 1: GCGAGGAAAGCGTGAAGGTGATTTCAGTTAATT
DNA 2: AATTAACTGAAATCACCTTCACGCTTTCCTCGC
B5: ErbB2 ERRE (dsDNA)
DNA 1: AAAGGAACTTTCCCAAGGTCACAGAGCTGAGCT
DNA 2: AGCTCAGCTCTGTGACCTTGGGAAAGTTCCTTT
B6: ERβ promoter site (dsDNA)
DNA 1: GGTGCTCCCACTTAGAGGTCACGCGCGGCGTCG
DNA 2: CGACGCCGCGCGTGACCTCTAAGTGGGAGCACC
B7: PgR site 3 (dsDNA)
DNA 1: TCCTAAGGACTGTCAAGGTCATCAAATACAAGG
DNA 2: CCTTGTATTTGATGACCTTGACAGTCCTTAGGA
B8: EGF site (dsDNA)
DNA 1: CAAATAATGGGCTGAAGGTGAACTATCTTTACT
DNA 2: AGTAAAGATAGTTCACCTTCAGCCCATTATTTG
B9: BRCA2 site (dsDNA)
DNA 1: AGAACATCCCTTTTAAGGTCAGAACAAAGGTAT
DNA 2: ATACCTTTGTTCTGACCTTAAAAGGGATGTTCT
B10: Prolactin site 2 (dsDNA)
DNA 1: CAAATTTGAAACTAAAGGTCACAGGCTGCTTTA
DNA 2: TAAAGCAGCCTGTGACCTTTAGTTTCAAATTTG
B11: Prolactin site 3 (dsDNA)
DNA 1: CCTCAGAGTGGCTCAGGGTCAGAGAAGGTAGAG
DNA 2: CTCTACCTTCTCTGACCCTGAGCCACTCTGAGG
B12: PgR site 1 (dsDNA)
DNA 1: AAAATTGTTTTGTCTAGGTCATTTGCATTTTCA
DNA 2: TGAAAATGCAAATGACCTAGACAAAACAATTTT
B13: IGF1R site (dsDNA)
DNA 1: GCTCCGGCTCGCTGAAGGTCACAGCCGAGGCGA
DNA 2: TCGCCTCGGCTGTGACCTTCAGCGAGCCGGAGC
B14: IGF2 site 3 (dsDNA)
DNA 1: GGTGGACGCTGCTGAAGGTGAGCGAGACCCCGG
DNA 2: CCGGGGTCTCGCTCACCTTCAGCAGCGTCCACC
B15: elk1 site (dsDNA)
DNA 1: CTCCCATCTCACTTAAGGTCAAAGCCAGGGTCC
DNA 2: GGACCCTGGCTTTGACCTTAAGTGAGATGGGAG
B16: pS2 site 2 (dsDNA)
DNA 1: GTAGGACCTGGATTAAGGTCAGGTTGGAGGAGA
DNA 2: TCTCCTCCAACCTGACCTTAATCCAGGTCCTAC
B17: IGF2 site 2 (dsDNA)
DNA 1: CTGTCGGCAGGAACAAGGTCACCCCTTGGCGTT
DNA 2: AACGCCAAGGGGTGACCTTGTTCCTGCCGACAG
B18: PgR site 2 (dsDNA)
DNA 1: TCCTTGCTAAACCCAAGGTCATAAATCTTTTCT
DNA 2: AGAAAAGATTTATGACCTTGGGTTTAGCAAGGA
B19: Prolactin site 1 (dsDNA)
DNA 1: TGTCCATTTTCTTCTAGGTCAACCCCAATGGTA
DNA 2: TACCATTGGGGTTGACCTAGAAGAAAATGGACA
B20: hMDM2 site (dsDNA)
DNA 1: GGGAGTTCAGGGTAAAGGTCACGGGGCCGGGGC
DNA 2: GCCCCGGCCCCGTGACCTTTACCCTGAACTCCC
B21: Cathepsin D site (dsDNA)
DNA 1: TGGCATATTGGGTGAAGGTCAAGGGAGTGGCTT
DNA 2: AAGCCACTCCCTTGACCTTCACCCAATATGCCA
B22: ERα promoter site (dsDNA)
DNA 1: ATGTTTGGTATGAAAAGGTCACATTTTATATTC
DNA 2: GAATATAAAATGTGACCTTTTCATACCAAACAT
B23: BRCA1 site (dsDNA)
DNA 1: GTAATTGCTGTACGAAGGTCAGAATCGCTACCT
DNA 2: AGGTAGCGATTCTGACCTTCGTACAGCAATTAC

The target of the first data set is T1, ERRα1 (estrogen-related receptor alpha …). Description: cell_activity; HeLa, 3xERE-TK-luc reporter. To be noted: tags:
Experimental: Transient Transfections and Luciferase Assays: To assess the role ERRα plays in regulating transcription of an ERE-containing promoter, MCF-7 or HeLa cells grown in 12-well tissue culture plates were co-transfected in parallel with 0.5 μg of pTK-luc versus p3xERE-TK-luc along with the indicated amounts of the empty cloning vector pcDNA3.1, the ERRα1 expression plasmid pcDNA3.1-hERRα1, or mutant variants thereof. […] Cells were harvested 48 h post-transfection, and lysates were assayed for luciferase activity normalized to protein concentration as previously described (36).
To determine whether the transcriptional repression observed here was dependent upon the cell line, we repeated the cotransfection experiments as described above except using ER-negative HeLa cells in place of ER-positive MCF-7 cells (FIG. 19).
For B1, the activity came out at 2.5 fold activation.

The target is the same in a further data set. The data set is described as follows: competition; competition EMSA, COS extract. To be noted: tags: COS / COS-M6 whole-cell extract, pcDNA3.1-hERRα1 or pRSV-hERRα1. (In EMSA bound probe runs differently from free probe, usually more slowly.)
B2 had a binding signal of 0.49 RBA vs reference ERRE.

On to B3, for which the binding signal worked out at 0.17 RBA vs reference ERRE.

Molecule B4 had a binding signal of 0.07 RBA vs reference ERRE.

B5 returned a binding signal of 1.01 RBA vs reference ERRE.

Regarding B6, the binding signal was 0.54 RBA vs reference ERRE.

For B7, the binding signal turned out to be 1.45 RBA vs reference ERRE.

With B8, the binding signal was determined as 0.14 RBA vs reference ERRE.

Consider B9, for which the binding signal came to 0.08 RBA vs reference ERRE.

As to B10, the binding signal turned out to be 0.33 RBA vs reference ERRE.

Molecule B11 displayed a binding signal of 0.07 RBA vs reference ERRE.

B12 showed a binding signal of 0.14 RBA vs reference ERRE.

For B13, the binding signal was found to be 0.36 RBA vs reference ERRE.

B14 came in with a binding signal of 0.06 RBA vs reference ERRE.

B15 had a binding signal of 0.22 RBA vs reference ERRE.

In turn, B16 displayed a binding signal of 0.12 RBA vs reference ERRE.

For B17, the binding signal amounted to 0.25 RBA vs reference ERRE.

B18 had a binding signal of 0.91 RBA vs reference ERRE.

Molecule B19 returned a binding signal of 0.06 RBA vs reference ERRE.

Molecule B20 gave a binding signal of 0.35 RBA vs reference ERRE.

For B21, the binding signal worked out at 0.49 RBA vs reference ERRE.

B22 displayed a binding signal of 0.11 RBA vs reference ERRE.

Molecule B23 showed a binding signal of 0.17 RBA vs reference ERRE.
